Experimental data as given in patent JP2014141434A (dated 2014).

How the values were obtained:
Assay in all cases: flow cytometry, transfected HEK293 cells
[1] = molecular target: T1, N末端FLAG−tag付加型ヒトROBO4細胞外領域ドメイン欠損体 hROBO4−210 (human, UniProt Q8WZ75 210-1007)
T1 construct: On HEK293 cells; also called pCI−FLAG−hROBO4−210; pCI−hROBO4−210
T1 sequence: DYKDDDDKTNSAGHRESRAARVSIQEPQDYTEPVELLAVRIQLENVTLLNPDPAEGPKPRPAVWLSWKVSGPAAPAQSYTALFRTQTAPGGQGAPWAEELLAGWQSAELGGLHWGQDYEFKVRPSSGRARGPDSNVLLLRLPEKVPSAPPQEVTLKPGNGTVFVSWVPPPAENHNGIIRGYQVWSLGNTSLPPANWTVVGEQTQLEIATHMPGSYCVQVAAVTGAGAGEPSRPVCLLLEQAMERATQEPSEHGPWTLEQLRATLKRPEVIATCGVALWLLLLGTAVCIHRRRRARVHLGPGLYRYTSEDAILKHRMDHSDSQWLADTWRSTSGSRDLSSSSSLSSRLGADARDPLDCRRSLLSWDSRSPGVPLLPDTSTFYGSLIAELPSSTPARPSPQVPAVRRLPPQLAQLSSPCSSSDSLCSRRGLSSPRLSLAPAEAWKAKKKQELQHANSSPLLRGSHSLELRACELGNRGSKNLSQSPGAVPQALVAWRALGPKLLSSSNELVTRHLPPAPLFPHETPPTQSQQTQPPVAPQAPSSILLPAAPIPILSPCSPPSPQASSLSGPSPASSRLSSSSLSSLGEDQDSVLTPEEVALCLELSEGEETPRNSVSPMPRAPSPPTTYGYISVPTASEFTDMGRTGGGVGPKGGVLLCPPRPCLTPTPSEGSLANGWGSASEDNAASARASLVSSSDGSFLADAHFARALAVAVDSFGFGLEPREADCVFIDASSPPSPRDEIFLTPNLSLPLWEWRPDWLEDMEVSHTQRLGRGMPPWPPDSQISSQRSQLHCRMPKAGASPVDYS

[2] = molecular target: T2, N末端FLAG−tag付加型ヒトROBO4細胞外領域ドメイン欠損体 hROBO4−225 (human, UniProt Q8WZ75 225-1007)
T2 construct: On HEK293 cells; also called pCI−FLAG−hROBO4−225; pCI−hROBO4−225
T2 sequence: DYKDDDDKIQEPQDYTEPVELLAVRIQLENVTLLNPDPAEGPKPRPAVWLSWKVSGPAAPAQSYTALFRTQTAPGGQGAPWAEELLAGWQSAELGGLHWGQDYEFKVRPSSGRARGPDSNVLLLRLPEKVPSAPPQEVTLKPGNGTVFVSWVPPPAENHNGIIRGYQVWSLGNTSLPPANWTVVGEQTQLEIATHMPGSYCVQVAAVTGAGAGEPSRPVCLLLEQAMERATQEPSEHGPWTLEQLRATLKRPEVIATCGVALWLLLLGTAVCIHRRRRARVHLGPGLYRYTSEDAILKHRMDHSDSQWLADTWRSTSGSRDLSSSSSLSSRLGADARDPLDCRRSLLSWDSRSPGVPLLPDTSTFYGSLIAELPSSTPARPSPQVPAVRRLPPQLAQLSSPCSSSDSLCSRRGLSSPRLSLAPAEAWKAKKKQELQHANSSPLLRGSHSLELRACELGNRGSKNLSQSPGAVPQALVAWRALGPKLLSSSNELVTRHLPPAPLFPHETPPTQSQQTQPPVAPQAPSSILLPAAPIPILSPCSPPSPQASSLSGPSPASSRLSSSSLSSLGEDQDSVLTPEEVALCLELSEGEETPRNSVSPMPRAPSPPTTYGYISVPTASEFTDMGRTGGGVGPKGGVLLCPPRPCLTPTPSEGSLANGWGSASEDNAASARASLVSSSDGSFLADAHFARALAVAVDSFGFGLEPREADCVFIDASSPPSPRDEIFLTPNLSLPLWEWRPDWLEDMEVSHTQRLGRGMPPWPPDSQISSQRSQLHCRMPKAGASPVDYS

[3] = molecular target: T3, N末端FLAG−tag付加型ヒトROBO4細胞外領域ドメイン欠損体 hROBO4−341 (human, UniProt Q8WZ75 341-1007)
T3 construct: On HEK293 cells; also called pCI−FLAG−hROBO4−341; pCI−hROBO4−341
T3 sequence: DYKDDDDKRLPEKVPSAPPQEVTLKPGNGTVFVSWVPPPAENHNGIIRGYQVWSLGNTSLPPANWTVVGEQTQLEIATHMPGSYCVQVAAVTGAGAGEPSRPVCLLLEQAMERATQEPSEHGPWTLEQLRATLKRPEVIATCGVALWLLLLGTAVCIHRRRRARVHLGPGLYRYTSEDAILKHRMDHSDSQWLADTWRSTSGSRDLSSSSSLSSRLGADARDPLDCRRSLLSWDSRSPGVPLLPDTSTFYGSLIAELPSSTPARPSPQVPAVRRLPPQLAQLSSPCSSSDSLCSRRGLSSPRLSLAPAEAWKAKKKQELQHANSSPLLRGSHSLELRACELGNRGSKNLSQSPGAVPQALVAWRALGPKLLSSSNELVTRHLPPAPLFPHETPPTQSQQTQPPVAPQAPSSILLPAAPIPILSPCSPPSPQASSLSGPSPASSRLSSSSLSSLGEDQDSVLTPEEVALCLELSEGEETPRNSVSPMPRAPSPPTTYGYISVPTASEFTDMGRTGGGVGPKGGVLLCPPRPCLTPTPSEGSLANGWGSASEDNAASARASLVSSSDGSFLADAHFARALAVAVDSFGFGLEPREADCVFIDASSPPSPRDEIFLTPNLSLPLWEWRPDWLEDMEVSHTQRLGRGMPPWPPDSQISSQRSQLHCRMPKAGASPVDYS

Measured: binding result

B1: 抗ROBO4マウスモノクローナル抗体 MAb1 (antibody, V domains shown)
VH: EVQLVESGGGLVKPGGSLKLSCAASGFTFSTYAMSWVRQTPEKRLEWVATISNGGTYTYYPDSVKGRFTISRDNAENTLYLQMSSLRSEDTAMYFCARLIYYDYLDYWGHGTTLTVSS
VL: DAVMTQTPLSLPVSLGDQASISCRSSQSLENSNGNTYLNWYFQKPGQSPQLLIYRVSNRFSGVLDRFSGSGSGTDFTLKISRVEAEDFGVYFCLQVTHVPWTFGGGTKLEIKR
notes: Mouse IgG1 (gamma 1) / kappa from a hybridoma; The constant regions are not in the listing; also called MAb1
no binding (tested: 10 μg/mL): [1] | [2] | [3]
